According to the Human Domainome abundance scans (Beltran et al. 2025):
± gives the uncertainty stated by the source.

B1: PDZ and LIM domain protein 2, residues 284 to 339; numbered along this chain, Q96JY6 (parent)
chain: HTCEKCSTSIANQAVRIQEGRYRHPGCYTCADCGLNLKMRGHFWVGDELYCEKHAR

Variants of: B1
Assay: abundance fitness (aPCA) (normalised: wild type 0, dead -1); higher = more abundant; growth selection in yeast, the domain comes from the species named
Settings: Homo sapiens

Abundance fitness of substitutions, site by site:
R16: N 0.191 ± 0.14 | W 0.298 ± 0.12 | P 0.209 ± 0.082 | S 0.112 ± 0.098 | L 0.168 ± 0.06 | G -0.015 ± 0.06 | H 0.004 ± 0.17 | I 0.172 ± 0.13 | T 0.137 ± 0.11 | Y 0.029 ± 0.11 | E 0.037 ± 0.091 | Q 0.308 ± 0.14 | A 0.2 ± 0.083 | V 0.146 ± 0.06 | C 0.32 ± 0.091 | D -0.091 ± 0.1 | F 0.215 ± 0.11 | M 0.2 ± 0.1 | K 0.223 ± 0.14
E19: K 0.01 ± 0.07 | T -0.068 ± 0.14 | S -0.197 ± 0.098 | D -0.374 ± 0.14 | F -0.672 ± 0.18 | V -0.495 ± 0.093 | H -0.292 ± 0.15 | N -0.453 ± 0.18 | L -0.237 ± 0.064 | Y -0.549 ± 0.089 | M -0.163 ± 0.13 | W -0.624 ± 0.19 | Q -0.071 ± 0.13 | R -0.12 ± 0.064 | A -0.165 ± 0.061 | P -0.211 ± 0.11 | C -0.447 ± 0.1 | G -0.375 ± 0.1
G20: N 0.006 ± 0.081 | Q -0.56 ± 0.22 | C -0.339 ± 0.071 | Y -0.174 ± 0.082 | P -0.63 ± 0.13 | R -0.136 ± 0.063 | M -0.154 ± 0.068 | I -0.257 ± 0.091 | W -0.497 ± 0.12 | S -0.29 ± 0.087 | F 0.116 ± 0.12 | H -0.119 ± 0.067 | A -0.251 ± 0.11 | V -0.363 ± 0.069 | K -0.023 ± 0.17 | E -0.209 ± 0.15 | T -0.129 ± 0.069 | L -0.452 ± 0.087
Y22: A -0.269 ± 0.09 | H -0.398 ± 0.22 | F 0.108 ± 0.076 | I -0.691 ± 0.23 | G -0.411 ± 0.08 | K -0.311 ± 0.14 | L -0.349 ± 0.087 | C -0.348 ± 0.12
V15: M -0.283 ± 0.12 | D -0.115 ± 0.11 | S -0.231 ± 0.069 | Y -0.499 ± 0.22 | L -0.248 ± 0.072 | T -0.018 ± 0.063 | P -0.654 ± 0.14 | C -0.317 ± 0.15 | H -0.099 ± 0.19 | F -0.38 ± 0.21 | E 0.272 ± 0.13 | K 0.052 ± 0.13 | G -0.33 ± 0.06 | A -0.625 ± 0.16 | R -0.596 ± 0.12 | I -0.105 ± 0.16 | Q -0.115 ± 0.1 | W -0.875 ± 0.17
N12: Y -0.622 ± 0.092 | W -0.78 ± 0.15
Q18: N -0.248 ± 0.29 | T -0.051 ± 0.075 | D -0.032 ± 0.13 | G -0.088 ± 0.066 | V 0.008 ± 0.081 | H -0.451 ± 0.2 | L -0.077 ± 0.083 | K -0.141 ± 0.11 | S 0.03 ± 0.084 | E 0.002 ± 0.12 | M -0.253 ± 0.12 | I 0.228 ± 0.18 | A 0.043 ± 0.062 | R -0.062 ± 0.082 | F -0.303 ± 0.087 | P -0.47 ± 0.075 | C -0.087 ± 0.1
A14: D -0.33 ± 0.2 | I -0.07 ± 0.099 | V -0.208 ± 0.092 | H -0.247 ± 0.24 | S -0.179 ± 0.079 | G -0.254 ± 0.089 | W -0.182 ± 0.12 | C -0.139 ± 0.18 | Q -0.329 ± 0.12 | Y -0.209 ± 0.22 | E 0.143 ± 0.084 | F 0.188 ± 0.14 | N -0.023 ± 0.12 | T -0.468 ± 0.11 | R -0.466 ± 0.071 | K -0.417 ± 0.093
Q13: I -0.778 ± 0.2 | S -0.128 ± 0.13 | D 0.448 ± 0.14 | W -1.19 ± 0.19 | E 0.194 ± 0.13 | P -0.227 ± 0.13 | T -0.11 ± 0.097 | M -0.223 ± 0.1 | A -0.399 ± 0.14 | V -0.327 ± 0.12 | F -0.049 ± 0.16 | R -0.826 ± 0.1 | G 0.098 ± 0.071 | H -0.767 ± 0.26 | L -0.36 ± 0.099 | C -0.216 ± 0.14 | K -0.501 ± 0.39 | Y -0.775 ± 0.35
I17: T -0.311 ± 0.079 | H -0.781 ± 0.13 | V -0.106 ± 0.099 | A -0.341 ± 0.1 | M -0.372 ± 0.072 | D -0.232 ± 0.3 | R -0.599 ± 0.074 | K -0.427 ± 0.09 | G -0.239 ± 0.083 | E -0.325 ± 0.11 | L -0.121 ± 0.076 | C -0.453 ± 0.098 | P -0.336 ± 0.062 | Q -0.535 ± 0.14 | Y -0.437 ± 0.18 | W -0.533 ± 0.13
R21: Y -0.008 ± 0.11 | C -0.069 ± 0.12 | L -0.01 ± 0.067 | F -0.01 ± 0.14 | T 0.151 ± 0.12 | V 0.11 ± 0.099 | G -0.251 ± 0.058 | M 0.035 ± 0.12 | I -0.046 ± 0.14 | K 0.002 ± 0.077 | H -0.015 ± 0.055 | A 0.015 ± 0.071 | E -0.286 ± 0.14 | N -0.259 ± 0.18 | S -0.02 ± 0.066 | P -0.101 ± 0.11 | D -0.217 ± 0.15
